Patent publication US20240043504A1 (published 2024)

T1: MERS-CoV Spike Protein (ECD, aa 1-1297, His Tag) (Sino 40069-[change]) (MERS-CoV, UniProt K9N5Q8 18-1297)
T1 sequence: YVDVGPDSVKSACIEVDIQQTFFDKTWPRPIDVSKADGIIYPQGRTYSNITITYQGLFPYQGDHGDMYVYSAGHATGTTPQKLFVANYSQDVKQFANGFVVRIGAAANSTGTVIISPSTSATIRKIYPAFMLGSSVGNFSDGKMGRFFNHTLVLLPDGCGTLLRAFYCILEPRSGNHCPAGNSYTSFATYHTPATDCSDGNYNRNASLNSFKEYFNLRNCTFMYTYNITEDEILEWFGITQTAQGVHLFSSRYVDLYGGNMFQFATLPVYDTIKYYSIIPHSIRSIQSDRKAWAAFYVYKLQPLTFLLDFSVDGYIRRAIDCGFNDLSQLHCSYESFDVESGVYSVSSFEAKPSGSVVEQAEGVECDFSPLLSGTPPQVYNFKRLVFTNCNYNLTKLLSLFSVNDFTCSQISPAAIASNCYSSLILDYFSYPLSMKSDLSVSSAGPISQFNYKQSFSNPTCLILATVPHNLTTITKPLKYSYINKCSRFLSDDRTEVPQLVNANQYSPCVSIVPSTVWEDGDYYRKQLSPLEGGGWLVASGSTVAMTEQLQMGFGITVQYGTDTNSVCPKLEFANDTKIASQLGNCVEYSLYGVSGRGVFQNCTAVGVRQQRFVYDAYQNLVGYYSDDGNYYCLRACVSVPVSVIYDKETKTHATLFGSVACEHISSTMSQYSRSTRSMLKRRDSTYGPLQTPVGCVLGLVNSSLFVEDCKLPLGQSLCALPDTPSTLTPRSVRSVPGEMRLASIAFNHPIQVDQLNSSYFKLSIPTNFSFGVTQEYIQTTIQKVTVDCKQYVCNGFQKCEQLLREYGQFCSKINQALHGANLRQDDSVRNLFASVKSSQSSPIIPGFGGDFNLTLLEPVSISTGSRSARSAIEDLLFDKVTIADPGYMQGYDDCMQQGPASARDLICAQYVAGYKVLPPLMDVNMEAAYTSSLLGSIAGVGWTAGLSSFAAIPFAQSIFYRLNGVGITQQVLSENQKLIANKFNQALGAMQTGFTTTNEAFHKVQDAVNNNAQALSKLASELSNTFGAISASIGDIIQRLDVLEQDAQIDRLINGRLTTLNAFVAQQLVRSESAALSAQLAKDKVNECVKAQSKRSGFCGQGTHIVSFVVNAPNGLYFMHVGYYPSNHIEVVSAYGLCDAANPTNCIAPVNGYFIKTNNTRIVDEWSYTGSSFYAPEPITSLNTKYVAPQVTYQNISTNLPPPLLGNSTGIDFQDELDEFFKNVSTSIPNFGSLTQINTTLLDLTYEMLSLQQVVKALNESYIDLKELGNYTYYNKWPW

T2: MERS-CoV (NCoV/Novel coronavirus) Spike Protein fragment (RBD, aa 367-606, His Tag) (Sino 40071-V08B1) (MERS-CoV, UniProt K9N5Q8 367-606)
T2 sequence: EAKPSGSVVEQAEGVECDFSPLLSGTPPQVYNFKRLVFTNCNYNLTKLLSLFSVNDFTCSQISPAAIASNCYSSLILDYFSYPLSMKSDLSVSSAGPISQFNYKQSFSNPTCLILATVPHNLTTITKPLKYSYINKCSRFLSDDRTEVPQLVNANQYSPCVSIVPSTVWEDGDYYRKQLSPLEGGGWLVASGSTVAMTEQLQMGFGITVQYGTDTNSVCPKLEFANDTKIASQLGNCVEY

T3: MERS-CoV (NCoV/Novel coronavirus) Spike Protein S1 Protein (aa 1-725, His Tag) (Sino 40069-V08B1) (MERS-CoV, UniProt K9N5Q8 18-725)
T3 sequence: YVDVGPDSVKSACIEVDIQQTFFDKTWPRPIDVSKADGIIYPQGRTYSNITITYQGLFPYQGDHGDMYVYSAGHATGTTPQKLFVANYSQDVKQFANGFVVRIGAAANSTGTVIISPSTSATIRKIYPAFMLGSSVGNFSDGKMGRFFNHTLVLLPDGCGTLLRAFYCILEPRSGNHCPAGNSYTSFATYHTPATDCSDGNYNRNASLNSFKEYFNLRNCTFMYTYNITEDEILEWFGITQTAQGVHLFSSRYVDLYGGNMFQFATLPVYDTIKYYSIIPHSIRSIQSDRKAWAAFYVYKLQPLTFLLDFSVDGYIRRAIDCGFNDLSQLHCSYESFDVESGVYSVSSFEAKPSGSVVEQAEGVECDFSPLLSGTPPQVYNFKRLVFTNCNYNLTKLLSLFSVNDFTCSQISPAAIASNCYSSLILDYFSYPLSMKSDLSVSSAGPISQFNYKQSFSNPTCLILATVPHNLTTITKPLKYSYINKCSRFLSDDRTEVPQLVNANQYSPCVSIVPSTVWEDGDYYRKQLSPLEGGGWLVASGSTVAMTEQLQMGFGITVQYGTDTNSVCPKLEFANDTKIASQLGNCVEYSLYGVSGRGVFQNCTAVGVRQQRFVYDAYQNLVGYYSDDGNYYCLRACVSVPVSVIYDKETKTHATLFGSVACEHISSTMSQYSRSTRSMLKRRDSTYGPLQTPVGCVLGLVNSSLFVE

T4: MERS-CoV Spike Protein S2 (aa 726-1296, His Tag) (Sino 40070-[change]) (MERS-CoV, UniProt K9N5Q8 726-1296)
T4 sequence: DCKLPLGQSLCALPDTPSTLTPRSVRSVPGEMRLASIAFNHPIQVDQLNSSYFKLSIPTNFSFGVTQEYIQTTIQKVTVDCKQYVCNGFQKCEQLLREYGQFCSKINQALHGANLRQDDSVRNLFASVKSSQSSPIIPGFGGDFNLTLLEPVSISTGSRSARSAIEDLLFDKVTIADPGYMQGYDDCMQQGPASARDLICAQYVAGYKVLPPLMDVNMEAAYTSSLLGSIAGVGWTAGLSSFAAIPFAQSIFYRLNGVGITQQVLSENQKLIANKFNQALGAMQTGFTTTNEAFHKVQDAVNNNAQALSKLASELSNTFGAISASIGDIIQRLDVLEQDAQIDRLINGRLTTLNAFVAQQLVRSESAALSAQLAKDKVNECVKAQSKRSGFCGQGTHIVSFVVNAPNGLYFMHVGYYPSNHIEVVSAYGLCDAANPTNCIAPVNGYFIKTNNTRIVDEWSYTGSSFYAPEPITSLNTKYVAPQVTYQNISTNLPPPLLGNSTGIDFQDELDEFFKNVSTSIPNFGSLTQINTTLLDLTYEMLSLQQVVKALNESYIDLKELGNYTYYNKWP


Tests used:
Assay in all cases: Luminex, supernatant
[1] = biological target: SARS-CoV-2 Spike Protein (RBD)(R319-F541).mFc (SARS-CoV-2)
[2] = biological target: SARS-CoV-2 Spike Protein (RBD)(R319-F541).hFc (SARS-CoV-2)
[3] = biological target: T1, MERS-CoV Spike Protein (ECD, aa 1-1297, …)
[4] = biological target: T2, MERS-CoV (NCoV/Novel coronavirus) Spike …
[5] = biological target: T3, MERS-CoV (NCoV/Novel coronavirus) Spike …
[6] = biological target: Human SARS Coronavirus Spike S1 Subunit Protein (His Tag) (Sino 40150-V08B1) (Human SARS Coronavirus, UniProt P59594 14-667)
[7] = biological target: T4, MERS-CoV Spike Protein S2 (aa 726-1296, …)

Binder	MFI [1] [MFI]	MFI [2] [MFI]	MFI [3] [MFI]	MFI [4] [MFI]	MFI [5] [MFI]	MFI [6] [MFI]	MFI [7] [MFI]
mAb10934 (antibody, V domains shown) VH: not shown VL: DIQMTQSPSSLSASVGDRVTITCQASQDIWNYINWYQQKPGKAPKLLIYDASNLKTGVPSRFSGSGSGTDFTFTISSLQPEDIATYYCQQHDDLPPTFGQGTKVEIKR	34300	35800	15	24	20	–	–
mAb10935 (antibody, V domains shown) VH: EVQLVESGGGLVQPGGSLRLSCAASGFTVSSNYMSWVRQAPGKGLEWVSLIYSGGSTYYADSVKGRFTISRHNSKNTLYLQMNSLRSEDTAVYYCARVPLGDYYYGMDVWGQGTTVTVSS VL: DIQMTQSPSSLSASVGDRVTITCQASQDINKYLNWYQQKPGKAPKLLIYDASNLETGVPSRFSGSGSGTDFTFTISSLQPEDIATYYCQQSDNLPLTFGGGTKVEIKR	35900	35600	15	25	–	21	18
mAb10985 (antibody, V domains shown) VH: EVQLVESGGGLVQPGRSLRLSCAASGFTFDDYAMHWVRQAPGKGLEWVSGISWNRGSIGYADSVKGRFTISRDNAKNSLYLQMSSLRAEDTALYYCAKDGERWDSVVVPSARNGMDVWGQGTTVTVSS VL: QSVLTQPPSVSGAPGQRVTISCTGSSSNIGAGYDVHWYQQLPGTAPKLLIYGNSNRPSGVPDRFSGSKSGTSASLAITGLQAEDEADYYCQSYDSSLSGSYVFGTGTKVTVLG	29400	31100	18	31	22	22700	28
mAb10986 (antibody, V domains shown) VH: EVQLVESGGGLVQPGGSLRLSCAASEFTVSSNYMSWVRQAPGKGLEWVSVIYSGGSTFYADSVKGRFTISRDNSKNTLYLQMNSLRAEDTAVYYCARALPYGDLHFDYWGQGTLVTVSS VL: QSVLTQPPSVSGAPGQRVTISCTGSSSNIGTGYDVHWYQQLPGTAPKLLIYGNTNRPSGVPDRFSGSKSGTSASLAITGLQAEDEADYYCQSYDSSLSDSYVFGTGTKVTVLG	28400	–	15	27	20	21	19
mAb10913 (antibody, V domains shown) VH: EVQLVESGGGLVQPGGSLRLSCAASGFTFRNYEMNWVRQAPGKGLEWVSYITSSGSTMYYADSVKGRFTISRDNAKNSLYLQMNSLRAEDTAVYYCARDGFYYYYAMDVWGQGTTVTVSS VL: QSVLTQPPSVSAAPGQKVTISCSGSSSNIGNNYVSWYQQLPGTAPKLLIYDNNKRPSGIPDRFSGSKSGTSATLGITGLQTGDEADYYCGTWDSSLSVGRVFGTGTKVTVLG	33000	31900	20	34	26	21	26
mAb10936 (antibody, V domains shown) VH: QVQLVESGGGVVQPGRSLRLSCAASGFTFRNYGMHWVRQAPGKGLEWVSVIWYDGSNRYYADSVKGRFTISRDTSKNTLYLQMNSLRAEDTAVYYCARDPPITGTTGGDAFDIWGQGTMVTVSS VL: not shown	33700	33900	19	29	20	20	21
mAb10937 (antibody, V domains shown) VH: QITLKESGPTLVKPTQTLTLTCTFSGFSLSTNVVGVGWIRQPPGKALEWLALIYWNDDKRYSPSLKSRLTITKDTSKNQVVLTMTNMDPVDTATYYCAHGPTGDYFDYWGQGTLVTVSS VL: not shown	34200	34600	19	27	22	21	26
mAb10914 (antibody, V domains shown) VH: EVQLVESGGGLVQPGGSLRLSCAASGLIVSRNYMIWVRQAPGKGLEWVSVIYSGGSTFYADSVKGRFTISRHNSKNTLYLQMNSLRAEDTAVYYCARDLGTGGMDVWGQGTTVTVSS VL: DIQLTQSPSFLSASVGDRVTITCWASQGISSYLAWYQQKPGKAPKLLIYAASTLQSGVPSRFSGSGSGTEFTLTISSLQPEDFATYYCQQLNSYPLTFGGGTKVEIKR	30700	30500	19	31	23	22	28
mAb10921 (antibody, V domains shown) VH: EVQLVESGGGLVQPGGSLRLSCAASGITVSSNYMSWVRQAPGKGLEWVSVIYSGGSTFYADSVKGRFTISRHNSKNTLYLQMNSLRAEDTAVYYCARERNFDAFDIWGQGTMVTVSS VL: DIQMTQSPSSVSASVGDRVTITCRASQGISSWLAWYQQKPGKAPKLLIYAASSLQSGVPSRFSGSGSGTDFTLTISSLQPEDFATYYCQQANSFPLFTFGPGTKVDIKR	19400	22300	19	23	–	19	19
